In PMC10726971 (Nature chemical biology, 2023):

Target: the molecule itself
Assay: SEC-MALS

B1: human FUT9 soluble catalytic domain (residues 39-359) (enzyme, UniProt Q9Y231 39-359, looked up)
chain: SPMESASSVLKMKNFFSTKTDYFNETTILVWVWPFGQTFDLTSCQAMFNIQGCHLTTDRSLYNKSHAVLIHHRDISWDLTNLPQQARPPFQKWIWMNLESPTHTPQKSGIEHLFNLTLTYRRDSDIQVPYGFLTVSTNPFVFEVPSKEKLVCWVVSNWNPEHARVKYYNELSKSIEIHTYGQAFGEYVNDKNLIPTISTCKFYLSFENSIHKDYITEKLYNAFLAGSVPVVLGPSRENYENYIPADSFIHVEDYNSPSELAKYLKEVDKNNKLYLSYFNWRKDFTVNLPRFWESHACLACDHVKRHQEYKSVGNLEKWFWN
modifications: N-glycans cleaved with EndoF1; a tetrasaccharide (Manα1,3-Manβ1,4-GlcNAcβ1,4-GlcNAcβ-) is left on Asn153
**Q.** How did the “stoichiometry N” value turn out when B1 was run?
**A.** 2
